Measurements reported in publication PMC3594340 (Journal of the American Society for Mass Spectrometry, 2013).

Target: the molecule itself
Test: cross-linking

B1: SO_2176 from Shewanella oneidensis (natural protein)
chain: MAIQSKYSNTQVESLIAEILVVLEKHKAPTDLSLMALGNCVTHLLERKVPSESRQAVAEQFAKALAQSVKSN
- binding result: binds
